Measurements reported in patent publication US12655454B2, “Process for producing formate using oxygen-tolerant enzymes” (GWANGJU INSTITUTE OF SCIENCE AND TECHNOLOGY, priority 2022, dated 2026).

Substrate: NC(=O)C1=CN([C@@H]2O[C@H](COP(=O)(O)OP(=O)(O)OC[C@H]3O[C@@H](n4cnc5c(N)ncnc54)[C@H](O)[C@@H]3O)[C@@H](O)[C@H]2O)C=CC1
Experiment: NADH-dependent CO2 reduction kinetics of RcFDH (Michaelis-Menten)
Type: biochemical, Rhodobacter capsulatus
Conditions: Kpi buffer pH 7.0, absorbance at 365 nm
Protocol: To construct the Strep-Tag II-fused Rhodobacter capsulatu-derived formate dehydrogenase (RcFDH) expression plasmid, pTrcHis-RcFDH was used as a template. […] was performed to substitute the hexahistidine-tag for strep tag II. pTrcHis-RcFDH was amplified by PCR with the in-fusion primer (FW: SEQ ID NO: 9, RV: SEQ ID NO: 10). The PCR product was mixed with 5× In-Fusion HD Enzyme Premix to generate pTrcHis-strep-RcFDH. The E. coli MC1061 strain was transformed with pTrcHis-Strep-RcFDH, and R. eutropha HF210 [pGE771] strain was used as the Ralstonia eutropha-derived hydrogenase (ReSH)-expressing strain.
The enzyme reaction kinetics of RcFDH were measured for NADH-dependent reduction of CO2 to formate in the presence or absence of O2. The sealing cuvette was filled with 900 μL of Kpi buffer containing NADH and sealed; then, 100% CO2 and a mixed gas consisting of 4% O2 and 96 N2 (or 100% N2 for anaerobic conditions) were injected simultaneously for 30 min at 10 mL/min, respectively. RcFDH (2 mL, 2 μM) was purged with 10 mL/min N2 gas bubbling in a 10 mL sealing vial for 30 min to remove O2 from the air. The reaction was initiated by mixing 100 μL of 2 μM RcFDH with a gas-saturated solution in the sealing cuvette. The final concentration of NADH was varied from 0 to 1 mM.
All measurements were performed in triplicate based on the change in the absorbance at 365 nm in the cuvette, measured using a T60 UV-Vis spectrophotometer (PG Instruments Ltd, Lutterworth, UK). The change in the absorbance over 1 min was plotted using the Michaelis-Menten equation to calculate the kinetic parameters.
The present inventor investigated the enzymatic activities of ReSH and RcFDH in the presence or absence of O2. The NAD^+-dependent H2 oxidation reaction rate by ReSH was measured, and the Michaelis-Menten curve was fitted to calculate the kinetic parameters using Origin 2022 program (FIG. 3A). […] Similarly, the NADH-dependent CO2 reduction reaction rate by RcFDH was measured, and the Michaelis-Menten curve was fitted to calculate the kinetic parameters (FIG. 3B).

[1] = other: 0% O2, NADH varied 0 to 1 mM
[2] = other: 2% O2, NADH varied 0 to 1 mM

B1: Strep-Tag II-fused Rhodobacter capsulatus-derived formate dehydrogenase (RcFDH), SEQ ID NO: 6 to SEQ ID NO: 8 (Rhodobacter capsulatus SB 1003) (protein)
chain 1: MKIWLPCDAAAKACGAEAVLAALRLEAEKRGGALDIARNGSRGMIWLEPLLEVETPAGRIGFGPMTPADVPALFDALESHPKALGLVEEIPFFKRQTRLTFARCGRIEPLSLAQFAAAEGWAGLRKALKMTPAEVVEEVLASGLRGRGGAGFPTGIKWRTVAAAQADQKYIVCNVDEGDSGSFADRMLIEGDPFCLVEGMAIAGHAVGATRGYVYIRSEYPDAIAVMRAAIAMAKPFLAEAGFEMEVRVGAGAYVCGEETSLLNSLEGKRGTVRAKPPLPALKGLFGKPTVVNNLLSLAAVPWIIAHGAKAYESFGMDRSRGTIPLQIGGNVKRGGLFETGFGITLGELVEDICGGTASGRPVKAVQVGGPLGAYHPVSDYHLPFCYEQFAGQGGLVGHAGLVVHDDTADMLKLARFAMEFCAIESCGTCTPCRIGAVRGVEVIDRIAAGDASAMPLLDDLCQTMKLGSLCALGGFTPYPVQSAIRHFPADFPCAREAAE
chain 2: MKDLIIPPLDWTQDMGTPKREGAPVHLTIDGVEVTVPAGTSVLRAAAEAGISIPKLCATDNVEPVGSCRLCMVEIEGMRGTPTSCTTPVAPGMRVHTQTPQLQKLRRGVMELYISDHPLDCLTCAANGDCELQDMAGAVGLREVRYQAKDTHFARRDATGPNPRYIPKDNSNPYFSYDPAKCIVCMRCVRACEEVQGTFALTVMGRGFDARISPAAPDFLSSDCVSCGACVQACPTATLVEKSVERIGTPERKVVTTCAYCGVGCSFEAHMLGDQLVRMVPWKGGAANRGHSCVKGRFAYGYATHQDRILKPMIRDKITDPWREVNWTEALDFTATRLRALRDSHGADALGVITSSRCTNEETYLVQKLARAVFGTNNTDTCARVCHSPTGYGLKQTFGTSAGTQDFDSVEETDLALVIGANPTDGHPVFASRLRKRLRAGAKLIVVDPRRIDLLNTPHRGEAWHLQLKPGTNVAVMTAMAHVIVTEQIFDKRFIGDRCDWDEWADYAEFVANPEYAPEAVESLTGVPAGLLRQAARAYAAAPNAAIYYGLGVTEHSQGSTTVIAIANLAMMTGNIGRPGVGVNPLRGQNNVQGSCDMGSFPHEFPGYRHVSDDATRGLFERTWGVTLSSEPGLRIPNMLDAAVEGRFKALYVQGEDILQSDPDTRHVSAGLAAMDLVIVHDLFLNETANYAHVFLPGSTFLEKDGTFTNAERRINRVRRVMAPKAGFADWEVTQMLANALGAGWHYTHPSEIMAEIAATTPGFAAVTYEMLDARGSVQWPCNEKAPEGSPIMHVEGFVRGKGRFIRTAYLPTDEKTGPRFPLLLTTGRILSQYNVGAQTRRTENTVWHGEDRLEIHPTDAETRGIRDGDWVRLASRAGETTLRATVTDRVSPGVVYTTFHHPDTQANVVTTDTSDWATNCPEYKVTAVQVAASNGPSDWQQDYAAQAAAARRIEAAE
- Km [1]: 166 ± 30 µM
- kcat [1]: 0.703 ± 0.043 s⁻¹
- Km [2]: 141 ± 22 µM
- kcat [2]: 0.699 ± 0.035 s⁻¹
